A word on the stoichiometry N: it is a count of units in the complex or per binding partner.

This assay addresses Cartilage oligomeric matrix protein (COMP), full-length, stably overexpressed in prostate cancer cells (human) (UniProt P49747). Nature of the assay: non-reducing SDS-PAGE with western blot; concentrated conditioned medium (Opti-MEM, 2 days) of transfected cells on a 5% non-reducing SDS-PAGE gel, blotted with anti-human COMP; under reducing conditions (10% gel) a sharp band of 130 kDa. (A western blot detects proteins with antibodies after separation by electrophoresis.)

Cartilage oligomeric matrix protein (COMP), full-length, stably overexpressed in prostate cancer cells, P49747 21-757 (natural protein; other documents disagree on this pair), sequence (P49747 21-757): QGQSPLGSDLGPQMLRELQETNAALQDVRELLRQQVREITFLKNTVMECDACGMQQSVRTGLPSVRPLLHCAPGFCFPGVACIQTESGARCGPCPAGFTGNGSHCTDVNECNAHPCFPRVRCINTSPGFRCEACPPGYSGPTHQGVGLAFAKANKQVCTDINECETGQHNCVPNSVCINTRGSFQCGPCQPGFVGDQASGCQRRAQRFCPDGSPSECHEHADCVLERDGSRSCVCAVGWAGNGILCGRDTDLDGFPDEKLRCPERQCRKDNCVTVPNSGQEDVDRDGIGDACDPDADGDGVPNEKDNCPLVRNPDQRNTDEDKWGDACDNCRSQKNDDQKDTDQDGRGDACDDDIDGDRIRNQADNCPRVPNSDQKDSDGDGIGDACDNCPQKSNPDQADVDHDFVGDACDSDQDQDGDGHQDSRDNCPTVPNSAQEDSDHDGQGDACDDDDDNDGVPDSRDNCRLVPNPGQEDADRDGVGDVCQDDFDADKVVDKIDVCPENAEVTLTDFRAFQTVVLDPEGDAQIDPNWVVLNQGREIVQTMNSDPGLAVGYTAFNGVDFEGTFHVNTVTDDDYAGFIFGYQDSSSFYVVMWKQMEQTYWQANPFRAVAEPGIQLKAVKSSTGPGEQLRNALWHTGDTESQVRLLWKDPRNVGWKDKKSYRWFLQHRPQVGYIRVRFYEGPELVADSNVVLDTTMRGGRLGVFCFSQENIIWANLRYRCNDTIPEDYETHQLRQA

“Cartilage oligomeric matrix protein (COMP), full-length, stably overexpressed in prostate cancer cells, P49747 21-757 (natural protein; other documents disagree on this pair)” gave a stoichiometry N of 5.
